Patent CN114106163A (ANYUAN MEDICINE SCIENCE AND TECH SHANGHAI LIMITED COMPANY, dated 2022)

How the values were obtained:
[1] = target: T1, SARS-CoV-2 S1蛋白 (ACRO Biosystems) (SARS-CoV-2, UniProt P0DTC2 16-685); assay: competition ELISA, S1 coated, HRP-hACE2-Fc as competitor
T1 construct: domain: S1

刺突S蛋白-鼠Fc融合蛋白 (S-mFc) = target: T2, 刺突S蛋白-鼠Fc融合蛋白 (S-mFc) (SARS-CoV-2; mouse, UniProt P0DTC2 14-1213); assay: FACS, blocking of S-mFc binding to 293T-ACE2 cells
T2 construct: domain: S蛋白全长区段

B1: 人源化抗体hS1B-30-3 (humanized antibody hS1B-30-3) (antibody, V domains shown)
VH: EVQLVESGGGLVQPGGSLRLSCAASGFTFSDAWMDWVRQAPGKGLDWVAQIRNKANSHATNYADSVKGRFTISRDDSKNSVYLQMNSLKTEDTAVYYCIRGLTGYVLDYWGQGTTVTVSS
VL: DIQMTQSPSSLSASVGDRVTITCKASQNVRTAVAWYQQKPGQSPKALIFLASNRHTGVPDRFSGSGSGTDFTLTISSLQPEDFATYFCLQHWNYPLTFGGGTKVEIKR
With B1 the EC50 [1] was 0.0331 µg/mL and the IC50 (刺突S蛋白-鼠Fc融合蛋白 (S-mFc)) was 0.00691 µg/mL.
